From publication PMC8116058 (2021)

Columns and labels:
[1] = molecular target: T1, macrocyclic peptide CP14, fluorescein-labeled (CP14^F) (N-terminal N-chloroacetyl-D-tyrosine joined by a thioether to a cysteine; fluorescein on the side chain of the C-terminal lysine; C-terminal amide); assay: FP; outward-facing, Mg-ATP trapped, detergent-solubilized
[2] = molecular target: T2, macrocyclic peptide CP12, fluorescein-labeled (CP12^F) (N-terminal N-chloroacetyl-D-tyrosine joined by a thioether to a cysteine; fluorescein on the side chain of the C-terminal lysine; C-terminal amide); assay: as above
[3] = molecular target: T1, macrocyclic peptide CP14, …; assay: FP; inward-facing, no Mg-ATP, detergent-solubilized
[4] = molecular target: T2, macrocyclic peptide CP12, …; assay: as above

| Binder | Kd [1] [nM] | Kd [2] [nM] | Kd [3] [nM] | Kd [4] [nM] |
| --- | --- | --- | --- | --- |
| TmrA^E523QB (catalytically reduced variant of TmrAB) (complex) chain 1: MTEDTYSKAFDRALFARILRYVWPYRLQVVLALLFLLVVTLAAAATPLFFKWAIDLALVPTEPRPLAERFHLLLWISLGFLAVRAVHFAATYGETYLIQWVGQRVLFDLRSDLFAKLMRLHPGFYDRNPVGRLMTRVTSDVDAINQFITGGLVGVIADLFTLVGLLGFMLFLSPKLTLVVLLVAPVLLAVTTWVRLGMRSAYREMRLRLARVNAALQENLSGVETIQLFVKEREREEKFDRLNRDLFRAWVEIIRWFALFFPVVGFLGDFAVASLVYYGGGEVVRGAVSLGLLVAFVDYTRQLFQPLQDLSDKFNLFQGAMASAERIFGVLDTEEELKDPEDPTPIRGFRGEVEFRDVWLAYTPKGVEPTEKDWVLKGVSFRVRPGEKVALVGATGAGKTSVVSLIARFYDPQRGCVFLDGVDVRRYRQEELRRHVGIVLQEPFLFSGTVLDNLRLFDPSVPPERVEEVARFLGAHEFILRLPKGYQTVLGERGAGLSTGEKQLLALVRALLASPDILLILDQATASVDSETEKRLQEALYKAMEGRTSLIIAHRLSTIRHVDRILVFRKGRLVEEGSHEELLAKGGYYAALYRLQFQEA chain 2: MTGRSAAPLLRRLWPYVGRYRWRYLWAVLAGLVSIFFFVLTPYFLRLAVDAVQAGRGFGVYALAIVASAALSGLLSYAMRRLAVVASRQVEYDLRRDLLHHLLTLDRDFYHKHRVGDLMNRLNTDLSAVREMVGPGILMGSRLSFLVLLAFLSMYAVNARLAFYLTLILPGIFLAMRFLLRLIDRRYREAQEVFDRISTLAQEAFSGIRVVKGYALERRMVAWFQDLNRLYVEKSLALARVEGPLHALLGFLMGFAFLTVLWAGGAMVVRGELSVGELVQFNAYLAQLTWPILGLGWVMALYQRGLTSLRRLFELLDEKPAIRDEDPLPLALEDLSGEVRFEGVGLKRDGRWLLRGLTLTIPEGMTLGITGRTGSGKSLLAALVPRLLDPSEGRVYVGGHEARRIPLAVLRKAVGVAPQEPFLFSETILENIAFGLDEVDRERVEWAARLAGIHEEILAFPKGYETVLGERGITLSGGQRQRVALARALAKRPKILILDDALSAVDAETEARILQGLKTVLGKQTTLLISHRTAALRHADWIIVLDGGRIVEEGTHESLLQAGGLYAEMDRLQKEVEA | 50 | 350 |  |  |
| TmrAB (heterodimeric ABC transport complex from Thermus thermophilus, wild type) (complex) chain 1: MTEDTYSKAFDRALFARILRYVWPYRLQVVLALLFLLVVTLAAAATPLFFKWAIDLALVPTEPRPLAERFHLLLWISLGFLAVRAVHFAATYGETYLIQWVGQRVLFDLRSDLFAKLMRLHPGFYDRNPVGRLMTRVTSDVDAINQFITGGLVGVIADLFTLVGLLGFMLFLSPKLTLVVLLVAPVLLAVTTWVRLGMRSAYREMRLRLARVNAALQENLSGVETIQLFVKEREREEKFDRLNRDLFRAWVEIIRWFALFFPVVGFLGDFAVASLVYYGGGEVVRGAVSLGLLVAFVDYTRQLFQPLQDLSDKFNLFQGAMASAERIFGVLDTEEELKDPEDPTPIRGFRGEVEFRDVWLAYTPKGVEPTEKDWVLKGVSFRVRPGEKVALVGATGAGKTSVVSLIARFYDPQRGCVFLDGVDVRRYRQEELRRHVGIVLQEPFLFSGTVLDNLRLFDPSVPPERVEEVARFLGAHEFILRLPKGYQTVLGERGAGLSTGEKQLLALVRALLASPDILLILDEATASVDSETEKRLQEALYKAMEGRTSLIIAHRLSTIRHVDRILVFRKGRLVEEGSHEELLAKGGYYAALYRLQFQEA chain 2: MTGRSAAPLLRRLWPYVGRYRWRYLWAVLAGLVSIFFFVLTPYFLRLAVDAVQAGRGFGVYALAIVASAALSGLLSYAMRRLAVVASRQVEYDLRRDLLHHLLTLDRDFYHKHRVGDLMNRLNTDLSAVREMVGPGILMGSRLSFLVLLAFLSMYAVNARLAFYLTLILPGIFLAMRFLLRLIDRRYREAQEVFDRISTLAQEAFSGIRVVKGYALERRMVAWFQDLNRLYVEKSLALARVEGPLHALLGFLMGFAFLTVLWAGGAMVVRGELSVGELVQFNAYLAQLTWPILGLGWVMALYQRGLTSLRRLFELLDEKPAIRDEDPLPLALEDLSGEVRFEGVGLKRDGRWLLRGLTLTIPEGMTLGITGRTGSGKSLLAALVPRLLDPSEGRVYVGGHEARRIPLAVLRKAVGVAPQEPFLFSETILENIAFGLDEVDRERVEWAARLAGIHEEILAFPKGYETVLGERGITLSGGQRQRVALARALAKRPKILILDDALSAVDAETEARILQGLKTVLGKQTTLLISHRTAALRHADWIIVLDGGRIVEEGTHESLLQAGGLYAEMDRLQKEVEA |  |  | 100 | 140 |
